{
  "source": "the nanobody polyreactivity screen of Harvey et al. (2022)",
  "data": [
    {"assay": "yeast display, Sf9 membrane polyspecificity reagent, FACS + sequencing; frameworks hold sequencing errors", "procedure,_shortened": "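A nanobody's polyreactivity label depends on the gate it was sorted from. Yeast display cells were stained with 10% biotinylated, detergent-solubilized Sf9 membrane reagent for 1 hour at 4 °C, enriched on streptavidin microbeads and sorted by FACS. The low and high (top ~1%) gates were set on anti-HA fluorescence for expression and streptavidin fluorescence for reagent binding.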", "values": [
      {"sequence": "QVQLVESGGGVGQAGGSLRLSCAASGSTFDRYTMGWYRQAPGKERELVAAISISGGSTYYADSVKGRFTISRDNAKNTVYLQMNSLKPEVTEVYYCAARLDTVTDYYYWGQGTQVTVSS", "polyreactivity (PSR sort gate)": "low polyreactivity"},
      {"sequence": "QVQLVESGGGLVQAGGSLRLSCAASGRNFRGNTMGWYRQAPGKERELVAAITRGGSTSYADSVKGRFTISRDNAKNTVILQMNSLKPEDTAVYYCATRTHGEGTRRVSWGQGTQVTVSS", "polyreactivity (PSR sort gate)": "low polyreactivity"},
      {"sequence": "QVQLVESGGGLVQAGGSLRLSCAASGSIFGYYAMGWYRQAPGKERELVAAIRWSDGSTYYADSVKGRFTISRDNAKNTVYLQMNSLKPEDTAVYYCAAETGWLYDYWGQGTQVTVSS", "polyreactivity (PSR sort gate)": "high polyreactivity"},
      {"sequence": "QVQLVESGGGLVQAGGSLRLSCASSGRTFRSYAMGWYRQAPGKERELVAAITYSGGNTYYADSVKGRFTISRDNAKNTVYLQMNSLKPEDTAVYYCAYLKTPRGYDYWGQGTQVTVSS", "polyreactivity (PSR sort gate)": "high polyreactivity"},
      {"sequence": "QVQLVESGGGLVQAGASLRLSCAASGITFDPNAMGWYRQAPGKERELVAAISTRGGSTYYADSVKGRFTISRDNAKNTVYLQMNSLKPEETAVYYCNALRTGRWFDYWGQGTQVTVSS", "polyreactivity (PSR sort gate)": "high polyreactivity"},
      {"sequence": "QVHLVESGGGLVQAGGSLRLSCAASGNTHVKNAMGWYRQAPGKERELVAAISSSGGRTYYGDSVKGRFTISRDNAKNTVYLQMNSLKPDDTAVYYCAARYPSGYYYWGQGTQVTVSS", "polyreactivity (PSR sort gate)": "high polyreactivity"},
      {"sequence": "QVQLVESGGGLVQAGGSLRLSCAASGFMFDDNAMGWYRQAPRKERELVAAITSGGGSTYYADSVKGRFTISRDYAKITVYLLMNSLKPEDTAVYYCAAGGYPSLLHDYDYWGQGTQVTVSS", "polyreactivity (PSR sort gate)": "low polyreactivity"},
      {"sequence": "QVQLVESGGGLVQAGGSLRLSCAASGSTFRNNAMGWYRQAPGKERELVAAISRGGGSTYYADSVKGRFTISRDNAKNTVYLQMNSLKPEDTAVYYCARRPTGIYDYWGQGTQVTVSS", "polyreactivity (PSR sort gate)": "high polyreactivity"},
      {"sequence": "QVQLVESGGGLVQAGGSLRLSCAASGIIFRRYAMGWYRQAPGKERELVAVISSGGSTNYADSVKGRFTISRDNAKNTVYLQMYSLKPEDTADYYCAAPSQSRGYYYWGQGTQVTVSS", "polyreactivity (PSR sort gate)": "high polyreactivity"},
      {"sequence": "QVQLEESGGGLVQAGGSLRLSCAASGNTSPVNAMGWYRQAPGKERELVAAITQSGGSTYYADSLKGRFTISRDNAKITVYFQMNSLKPQDTAVYYCAADVLGPQYWWYDYWGQGTQVTVSS", "polyreactivity (PSR sort gate)": "low polyreactivity"},
      {"sequence": "QVQLVESGGGLVQAGGSLRLSCAASGRTFGRNAMGWYRQAPGKERELVAAISTSGSRTYYADSVKGRFTISRDNAKNTVYLQMNSLKPEDTAVYYCNAYGVSRGSYGTRGYWGQGTQVTVSS", "polyreactivity (PSR sort gate)": "high polyreactivity"},
      {"sequence": "QVQLVESGGGLVKAGGSLRLSCAASGFIFNGYAMGWYRQAPGKESELVAAINSGGITHYADSVKGRFTISRDNAKNTVYLQMNSLKPEDTAVYYCAAVRTGYYRQYDYWGQGTQVTVSS", "polyreactivity (PSR sort gate)": "high polyreactivity"},
      {"sequence": "QVQLVESGGGLVQAGGSLGLSCAATGSTIPYNAMGWYRQAPGKERELVAAINSAGGTNYADSVKGRFTISRDNAKNTVYLQMNSRKPEDTAVYYCAADGSGYYDWYYYWGQGTQVTVSS", "polyreactivity (PSR sort gate)": "low polyreactivity"},
      {"sequence": "QVQLVESGGGLVQAGGSLRLSCAASGRIFSVKVMGWYRQAPGKERELVAAITWSVGSTYYADSVKGRFTISRDNPKNTVSLQMNSLKREDTAVYYCAARGPPVYGRVGGYHYWGQGTQVTVSS", "polyreactivity (PSR sort gate)": "low polyreactivity"},
      {"sequence": "QVQLVESGGGLVQAGGSLRLSCAASGRTFSGYAMGWYRQAPGKEREFVAAITSSGSSTYYADSVKWRFTISRVIAKNTVYLQMNSLKPEDTAVYYCAATPQAHSERYYYQRKYDYWGQGTQVTVSS", "polyreactivity (PSR sort gate)": "low polyreactivity"},
      {"sequence": "QVQLVESGGGLVQAGGSLRLSCAASGRTFHPYAMGWYRQAPGKERELVAAITSIGGSTFYADSVKGRFTISRDNAKNNVYLQLTSLKPEDTAVYFCNAESSYYYGTAAYEYWGQGTQVSVSS", "polyreactivity (PSR sort gate)": "low polyreactivity"},
      {"sequence": "QVQLEESGGGLVQAGGSLRLSCAASGSTFPGNALGWYRQAPGKERELVAAITSSGGSTDYADSVKGRFTISRDNAKNTVYLQMNSLKPEDTAVYYCAADGEDSLWTGYDYDYWGQGTQVTVSS", "polyreactivity (PSR sort gate)": "low polyreactivity"},
      {"sequence": "QVQLVESGGGLVQAGGSLRLSCAASGFIFRNYAMGWYRQAPGKERELVAGITSSGGRTYYADSVKGRFTISRDNAKNTVYLQMNSLKPEDTAVYYCNIDVLYYRYTSFSNRYYYWGQGTQVTVSS", "polyreactivity (PSR sort gate)": "high polyreactivity"},
      {"sequence": "QVQLVESGGGLVQAGGSLRLSCAASGRIFVHNAMGWYRQAPGKERELVAAISQNGGRTYYADSVKGRFTISRDNAKNTVYLQMNSLIPEDTAVYYCAAGQARAGLIGGYWGQGTQVTVSS", "polyreactivity (PSR sort gate)": "high polyreactivity"},
      {"sequence": "QVQLVESGGGLVQAGVSLRFSCAASGYIFDVNALGWYRQEPGKERELVAAISQRGTRTYYADSVKGRFTITRDNANNTVFLQMNSLKPEYTAVYYCNRGGWRQYDSWGQGTQVTVSS", "polyreactivity (PSR sort gate)": "high polyreactivity"},
      {"sequence": "QVQLVESGGGLVQAGGSLRLSCAASGSTFGTYAMGCYRQAPGKARELVAAISGRGTSTYYADSVKGRFTISRDNAKITVYLQMNSLKPEDTAVYYCNAVFWSRSSHFDYWGQGTQVTVSS", "polyreactivity (PSR sort gate)": "high polyreactivity"},
      {"sequence": "QVQLVESGGGLVQAGGSLRLSCAASGRIFWRYAMGWYRQAPGKERELVAAITGRTGSTNYADSVKGRFTISRDNANNTVYLQMNSLKREDTAVYYCAAAHHRWTGLFPSGYEFDYWGQGTQVTVSS", "polyreactivity (PSR sort gate)": "low polyreactivity"},
      {"sequence": "QVQLVESGGGLVQAGGSLRLSCAASGSTFKVNDMGWYRQAPGKERELVAAIDKSGGTTYYADSVKGRFTISRDNAKNTVYLQMNSLKPEDTAVYYCAADVIYEMDYWGQGTQVTVSS", "polyreactivity (PSR sort gate)": "low polyreactivity"},
      {"sequence": "QVQLVESGGGLVQAGGRLRLSCAASGYTFVVNAMGWYRQAPGKERELVAAITGGDSTNYADSVKGRFTISRDNATNTVYLQMNSLKPEDTAVYYCAKRDVLPFQTVTGSRNDYWGQGTQVTVSS", "polyreactivity (PSR sort gate)": "low polyreactivity"},
      {"sequence": "QVQLVESGGGLVQAGGSLSLSCAASGSTFFIYTMGWYRQAPGNEREFVAAISWTGGRTYYADSEKGRFTISRDNAKNTVFLQMNSLTPEDTAVYYCAARYKYSSYDYWGQGTQVTVSS", "polyreactivity (PSR sort gate)": "high polyreactivity"},
      {"sequence": "QDQHVESAGGVVQTGGSLRLSGAATGSIFGEYAMGWYRQPPGQEREFVADITRSDGSTYYADSVKGRFTISRDHAKNTVYFQMNSMKPEYTAVYYCAADSVLDRPVLYLGPWYLGDYWGQGTLVTVSS", "polyreactivity (PSR sort gate)": "low polyreactivity"},
      {"sequence": "QVQLVESGGGLVQAGGSLRLSCAASGFTFYTNTMGWYRQAPGKERELVAVISRTGGSTYYADSVKGRFTISRDNANNTVYLQMKSLKPEDTAVYYCAKRGQWPYDYFIGNYWGQGSQVTVSS", "polyreactivity (PSR sort gate)": "high polyreactivity"},
      {"sequence": "QVQLVESGGGLVQAGGSLRLSCAASGRIFRYYSMGWYRQAPGKERELVAAISRSGSTNYADSVKGRFTISRDNAKNTVYFQMNSLKPEDTAVYYCAADSNYLYFWRRYKRMDYWGQGTQVTVSS", "polyreactivity (PSR sort gate)": "high polyreactivity"},
      {"sequence": "QVQLVESGGGLVQAGGSLRLSCAASGFIFGAYSMGWYRQAPGKERELVADITQNSGSTYYADSVKGRFTISRDNAKNTVYLQMNSLKPEDTAVYYCNAPPGTFQWQGHSDYWGQGTQVTVSS", "polyreactivity (PSR sort gate)": "low polyreactivity"},
      {"sequence": "QVQLVESGGGLVQAGGSLRLSCAASGSIFGDYAMGWYRQAPGKERELVAAIRYIGVSTYYADSVKGRFTISRDNAKNTVYLQMNSLKPEDTAVYYCAAEVYYEYYYWRYYWGQGTQVTVSS", "polyreactivity (PSR sort gate)": "high polyreactivity"},
      {"sequence": "QVQLVESGGGLVQAGGSLRLSCAASGFTFYQYAMGWYRQAPGKERELVAAITRRGGSTSYADSVKGRFTISRDNAKNTVYLQMNSLKPEDTAVYYCAREGSNSGRHGTLFDYWGQGTQVTVSS", "polyreactivity (PSR sort gate)": "high polyreactivity"},
      {"sequence": "QVQLVESGGGLVQAGGSLRLSCAASGSIFFPYVMGWYRQAPGKERELVAAITYRAGSTYYADSVKGRFTISRDNAKNTVYLQMNSLKPEDTAVYYCAAVVSRSGEFGYWGQGTQVTVSS", "polyreactivity (PSR sort gate)": "low polyreactivity"}
    ]}
  ]
}
